# Assay results from US20230365675A1 (published 2023).
# How the values were obtained:
# Experiment in all cases: FACS, mutant CD33-GFP on 293FT cells
# [1] = target: T1, Mutant CD33-GFP M11 (L78T) on 293FT cells (UniProt P20138 18-364)
# T1 construct: whole, on cells; not shown: GFP fused to CD33
# [2] = target: T2, Mutant CD33-GFP M13 (R91E) on 293FT cells (UniProt P20138 18-364)
# T2 construct: whole, on cells; not shown: GFP fused to CD33
# [3] = target: T3, Mutant CD33-GFP M14 (E170R) on 293FT cells (UniProt P20138 18-364)
# T3 construct: whole, on cells; not shown: GFP fused to CD33
# T3 sequence (P20138 18-364 E170R): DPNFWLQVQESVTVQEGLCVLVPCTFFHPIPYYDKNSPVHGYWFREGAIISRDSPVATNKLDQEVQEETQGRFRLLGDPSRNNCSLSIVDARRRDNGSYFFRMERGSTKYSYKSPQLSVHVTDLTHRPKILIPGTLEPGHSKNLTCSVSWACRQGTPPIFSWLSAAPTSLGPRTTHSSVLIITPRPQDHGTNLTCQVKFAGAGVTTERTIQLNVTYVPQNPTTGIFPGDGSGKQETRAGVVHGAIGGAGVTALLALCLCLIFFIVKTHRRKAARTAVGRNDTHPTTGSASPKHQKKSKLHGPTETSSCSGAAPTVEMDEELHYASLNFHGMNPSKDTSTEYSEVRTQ
# [4] = target: T4, Mutant CD33-GFP M12 (G88S) on 293FT cells (UniProt P20138 18-364)
# T4 construct: whole, on cells; not shown: GFP fused to CD33
# T4 sequence (P20138 18-364 G88S): as the sequence (P20138 18-364 E170R) above, with G71S, R153E counted along it
# [5] = target: T5, Mutant CD33-GFP M15 (Q171A) on 293FT cells (UniProt P20138 18-364)
# T5 construct: whole, on cells; not shown: GFP fused to CD33
# T5 sequence (P20138 18-364 Q171A): as the sequence (P20138 18-364 E170R) above, with R153E, Q154A counted along it
# [6] = target: T6, Mutant CD33-GFP M8 (K52A) on 293FT cells (UniProt P20138 18-364)
# T6 construct: whole, on cells; not shown: GFP fused to CD33
# T6 sequence (P20138 18-364 K52A): as the sequence (P20138 18-364 E170R) above, with K35A, R153E counted along it
# [7] = target: T7, Mutant CD33-GFP M10 (Y127A) on 293FT cells (UniProt P20138 18-364)
# T7 construct: whole, on cells; not shown: GFP fused to CD33
# T7 sequence (P20138 18-364 Y127A): as the sequence (P20138 18-364 E170R) above, with Y110A, R153E counted along it
# [8] = target: T8, Mutant CD33-GFP M7 (R98D) on 293FT cells (UniProt P20138 18-364)
# T8 construct: whole, on cells; not shown: GFP fused to CD33
# T8 sequence (P20138 18-364 R98D): as the sequence (P20138 18-364 E170R) above, with R81D, R153E counted along it
# [9] = target: T9, Mutant CD33-GFP M6 (F43N) on 293FT cells (UniProt P20138 18-364)
# T9 construct: whole, on cells; not shown: GFP fused to CD33
# T9 sequence (P20138 18-364 F43N): as the sequence (P20138 18-364 E170R) above, with F26N, R153E counted along it
# [10] = target: T10, Mutant CD33-GFP M9 (Y49, 50A) on 293FT cells (UniProt P20138 18-364)
# T10 construct: whole, on cells; Read as the double mutant Y49A + Y50A; not shown: GFP fused to CD33
# T10 sequence (P20138 other isoform, or with tags, fused parts or gaps mutant): as the sequence (P20138 18-364 E170R) above, with Y32A, Y33A, R153E counted along it
# [11] = target: T11, Mutant CD33-GFP M3 (N99A) on 293FT cells (UniProt P20138 18-364)
# T11 construct: whole, on cells; not shown: GFP fused to CD33
# T11 sequence (P20138 18-364 N99A): as the sequence (P20138 18-364 E170R) above, with N82A, R153E counted along it
# [12] = target: T12, Mutant CD33-GFP M4 (R122D) on 293FT cells (UniProt P20138 18-364)
# T12 construct: whole, on cells; not shown: GFP fused to CD33
# T12 sequence (P20138 18-364 R122D): as the sequence (P20138 18-364 E170R) above, with R105D, R153E counted along it
# [13] = target: T13, Mutant CD33-GFP M2 (H45E) on 293FT cells (UniProt P20138 18-364)
# T13 construct: whole, on cells; not shown: GFP fused to CD33
# T13 sequence (P20138 18-364 H45E): as the sequence (P20138 18-364 E170R) above, with H28E, R153E counted along it
# [14] = target: T14, Mutant CD33-GFP M1 (W22A) on 293FT cells (UniProt P20138 18-364)
# T14 construct: whole, on cells; not shown: GFP fused to CD33
# T14 sequence (P20138 18-364 W22A): as the sequence (P20138 18-364 E170R) above, with W5A, R153E counted along it
# [15] = target: T15, Mutant CD33-GFP M5 (AEAD), quadruple mutant, on 293FT cells (UniProt P20138 18-364)
# T15 construct: whole, on cells; substitutions left empty; not shown: GFP fused to CD33
# T15 sequence (P20138 other isoform, or with tags, fused parts or gaps mutant): as the sequence (P20138 18-364 E170R) above, with W5A, H28E, N82A, R105D, R153E counted along it
# [16] = target: Mutant CD33-GFP M16 (4889AII) on 293FT cells (UniProt P20138)
# [17] = target: Mutant CD33-GFP M18 (353AAL) on 293FT cells (UniProt P20138)
# [18] = target: Mutant CD33-GFP M19 (348ATAI) on 293FT cells (UniProt P20138)
# [19] = target: T16, Mutant CD33-GFP JS28 (S28L) on 293FT cells (UniProt P20138 18-364)
# T16 construct: whole, on cells; not shown: GFP fused to CD33
# T16 sequence (P20138 18-364 S28L): as the sequence (P20138 18-364 E170R) above, with S11L, R153E counted along it
# [20] = target: T17, Mutant CD33-GFP JS24 (Q24E) on 293FT cells (UniProt P20138 18-364)
# T17 construct: whole, on cells; not shown: GFP fused to CD33
# T17 sequence (P20138 18-364 Q24E): as the sequence (P20138 18-364 E170R) above, with Q7E, R153E counted along it
# [21] = target: T18, Mutant CD33-GFP JS23 (L23N) on 293FT cells (UniProt P20138 18-364)
# T18 construct: whole, on cells; not shown: GFP fused to CD33
# T18 sequence (P20138 18-364 L23N): as the sequence (P20138 18-364 E170R) above, with L6N, R153E counted along it
# [22] = target: T19, Mutant CD33-GFP JS25 (V25M) on 293FT cells (UniProt P20138 18-364)
# T19 construct: whole, on cells; not shown: GFP fused to CD33
# T19 sequence (P20138 18-364 V25M): as the sequence (P20138 18-364 E170R) above, with V8M, R153E counted along it
# T2 sequence (P20138 18-364 R91E): as the sequence (P20138 18-364 E170R) above, with R74E, R153E counted along it
# T1 sequence (P20138 18-364 L78T): as the sequence (P20138 18-364 E170R) above, with L61T, R153E counted along it
binder,measurement,setting,value
"hu195 (antibody, V domains shown) VH: QVQLVQSGAEVKKPGSSVKVSCKASGYTFTDYNMHWVRQAPGQGLEWIGYIYPYNGGTGYNCIKFKSKATITADESTNTAYMELSSLRSEDTAVYYCARGRPAMDYWGQGTLVTVSS VL: DIQMTQSPSSLSASVGDRVTITCRASESVDNYGISFMNWFQQKPGKAPKLLIYAASNQGSGVPSRFSGSGSGTDFTLTISSLQPDDFATYYCQQSKEVPWTFGQGTKVEIK",FACS binding data,[1],86.8
same,FACS binding data,[2],98.1
same,FACS binding data,[3],98.2
same,FACS binding data,[4],98.3
same,FACS binding data,[5],97.6
same,FACS binding data,[6],99.5
same,FACS binding data,[7],92.5
same,FACS binding data,[8],98.4
same,FACS binding data,[9],99.4
same,FACS binding data,[10],94.4
same,FACS binding data,[11],99.5
same,FACS binding data,[12],99.6
same,FACS binding data,[13],99.6
same,FACS binding data,[14],99.3
same,FACS binding data,[15],0.26
same,FACS binding data,[16],97.2
same,FACS binding data,[17],99.4
same,FACS binding data,[18],99.7
same,FACS binding data,[19],99.9
same,FACS binding data,[20],72.5
same,FACS binding data,[21],99.4
same,FACS binding data,[22],99.8
